Experimental data published in IntAct's records for PubMed 16698797.

B1: Protein O-mannosyl-transferase 1 (Homo sapiens), Q9Y6A1 (parent)
chain: MWGFLKRPVVVTADINLSLVALTGMGLLSRLWRLTYPRAVVFDEVYYGQYISFYMKQIFFLDDSGPPFGHMVLALGGYLGGFDGNFLWNRIGAEYSSNVPVWSLRLLPALAGALSVPMAYQIVLELHFSHCAAMGAALLMLIENALITQSRLMLLESVLIFFNLLAVLSYLKFFNCQKHSPFSLSWWFWLTLTGVACSCAVGIKYMGVFTYVLVLGVAAVHAWHLLGDQTLSNVGADVQCCMRPACMGQMQMSQGVCVFCHLLARAVALLVIPVVLYLLFFYVHLILVFRSGPHDQIMSSAFQASLEGGLARITQGQPLEVAFGSQVTLRNVFGKPVPCWLHSHQDTYPMIYENGRGSSHQQQVTCYPFKDVNNWWIVKDPRRHQLVVSSPPRPVRHGDMVQLVHGMTTRSLNTHDVAAPLSPHSQEVSCYIDYNISMPAQNLWRLEIVNRGSDTDVWKTILSEVRFVHVNTSAVLKLSGAHLPDWGYRQLEIVGEKLSRGYHGSTVWNVEEHRYGASQEQRERERELHSPAQVDVSRNLSFMARFSELQWRMLALRSDDSEHKYSSSPLEWVTLDTNIAYWLHPRTSAQIHLLGNIVIWVSGSLALAIYALLSLWYLLRRRRNVHDLPQDAWLRWVLAGALCAGGWAVNYLPFFLMEKTLFLYHYLPALTFQILLLPVVLQHISDHLCRSQLQRSIFSALVVAWYSSACHVSNTLRPLTYGDKSLSPHELKALRWKDSWDILIRKH
partner: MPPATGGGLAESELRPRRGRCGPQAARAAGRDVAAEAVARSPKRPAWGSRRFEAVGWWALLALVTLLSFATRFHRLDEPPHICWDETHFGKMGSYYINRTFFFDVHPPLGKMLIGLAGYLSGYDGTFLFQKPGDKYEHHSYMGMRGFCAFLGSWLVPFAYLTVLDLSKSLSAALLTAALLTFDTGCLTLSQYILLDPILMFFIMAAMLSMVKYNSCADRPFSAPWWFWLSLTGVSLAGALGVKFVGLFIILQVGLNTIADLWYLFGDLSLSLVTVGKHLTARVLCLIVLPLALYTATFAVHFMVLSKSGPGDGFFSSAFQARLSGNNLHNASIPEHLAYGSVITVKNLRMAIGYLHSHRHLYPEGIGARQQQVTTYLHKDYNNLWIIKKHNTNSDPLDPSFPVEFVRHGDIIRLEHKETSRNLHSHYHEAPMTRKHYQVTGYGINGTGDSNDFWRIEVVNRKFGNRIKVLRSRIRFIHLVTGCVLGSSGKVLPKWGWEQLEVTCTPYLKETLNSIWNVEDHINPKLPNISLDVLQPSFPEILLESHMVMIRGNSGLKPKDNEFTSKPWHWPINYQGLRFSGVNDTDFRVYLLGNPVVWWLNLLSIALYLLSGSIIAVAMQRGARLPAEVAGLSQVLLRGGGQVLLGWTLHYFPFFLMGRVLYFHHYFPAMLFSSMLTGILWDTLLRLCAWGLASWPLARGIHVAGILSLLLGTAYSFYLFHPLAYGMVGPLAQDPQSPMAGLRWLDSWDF

Variants of: B1
Conditions: with pomt2_human POMT2, Q9UKY4

Effect of a mutation on the interaction, with no effect:
W582C
A200P
G76R
G65R
V428D
